Series [1] concerns the target T1, CalR3 (Streptomyces chartreusis NRRL 3882) (UniProt F8QZR9).
T1 sequence: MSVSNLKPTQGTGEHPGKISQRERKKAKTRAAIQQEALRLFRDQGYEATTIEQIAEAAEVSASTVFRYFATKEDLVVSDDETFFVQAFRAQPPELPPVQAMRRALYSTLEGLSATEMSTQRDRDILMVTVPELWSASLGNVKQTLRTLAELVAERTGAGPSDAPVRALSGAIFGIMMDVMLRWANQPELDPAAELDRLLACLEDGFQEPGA
The series can be described thus: EMSA. The following applies: EMSA: 20 mM Tris-Cl pH 8.0, 100 mM KCl, 10 mM DTT, 37 C, 30 min, 20 ul, footprinting: 25 C, 500 ng probe in 40 ul.

For series [2], the target named is T2, CalR3 (Streptomyces chartreusis NRRL 3882, UniProt F8QZR9 1-211).
T2 sequence: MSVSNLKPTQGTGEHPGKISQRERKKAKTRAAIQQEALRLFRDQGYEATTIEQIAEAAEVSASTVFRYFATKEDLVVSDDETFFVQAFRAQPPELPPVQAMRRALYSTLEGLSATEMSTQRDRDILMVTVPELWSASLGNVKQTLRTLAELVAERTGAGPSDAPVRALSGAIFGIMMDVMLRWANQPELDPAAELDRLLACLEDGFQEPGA
As to the kind of experiment: EMSA; 1.5 uM probe, 0.8 uM CalR3; EMSA: 20 mM Tris-Cl pH 8.0, 100 mM KCl, 10 mM DTT, 37 C, 30 min, 20 ul; footprinting: 25 C, 30 min, 500 ng probe in 40 ul. As to conditions: protein: recombinant; tags: N-terminal His6 (pET28a); chain copies: 2.

Series [3] has as its target T2, CalR3. The series can be described thus: EMSA; 1.5 uM probe, 0.8 uM CalR3; two shifted bands; EMSA: 20 mM Tris-Cl pH 8.0, 100 mM KCl, 10 mM DTT, 37 C, 30 min, 20 ul; footprinting: 25 C, 30 min, 500 ng probe in 40 ul. The following applies: protein: recombinant; tags: N-terminal His6 (pET28a); chain copies: 2. A general note: In EMSA bound probe runs differently from free probe, usually more slowly.

For “CCAGCCGGTAAAGAGCGAGCCTCATGACAGGCAACCTTCTTTTAGGAGTCGACTTTCAATTGATAGCCTACTAGCACTTTGAGGAGATGAGAACTCCTCCTCGCTGCCACC (double strand) [T-R3L]”, the binding entry in series [1] was “binds”.
Same read-out and setting: the same measure for “TCCCTTGCGTCGGTTTCAGGTTGGACACGCTCATGCTCCACATTCTCCAGGCTCTCCGGCGGCCGGCCGGTCACGGCTGTGCCGCGCCCGGCCGCGTGCGGCGGTGGCAGCGAGGAGGAG (double strand) [T-R3R]”: “no binding”.
Take “TGACAGGCAACCTTCTTTTAGGAGTCGACTTTCAATTGATAGCCTACTAGCACTTTGAGGAGATGAGAACTCCTCCTCGCTGCCACCGCCGCACGCGGCCGGGCGCGGCACAGCCGTGACCGGCCGGCCGCCGGAGAGCCTGGAGAATGTGGAGCA (double strand) [T-R3 (calT-calR3 intergenic)]”: the binding entry in series [1] was “binds”.

B1: m1 (site II palindrome mutated) (dsDNA)
DNA 1: AAGAGCGAGCCTCATGACAGGCAACCTTCTTTTAGGAGTCGAGAATTCTAGATATCCCTACTAGCACTTTGAGGAGATGA
DNA 2: TCATCTCCTCAAAGTGCTAGTAGGGATATCTAGAATTCTCGACTCCTAAAAGAAGGTTGCCTGTCATGAGGCTCGCTCTT
Turning to B1, in the series with CalR3 [2], the binding result is reported as “no binding”.

B2: m1&2 (sites I and II mutated) (dsDNA)
DNA 1: AAGAGCGAGCCTCAACTGAGGCAACCTTCTTTTAGGAGTCGAGAATTCTAGATATCCCTACTAGCACTTTGAGGAGATGA
DNA 2: TCATCTCCTCAAAGTGCTAGTAGGGATATCTAGAATTCTCGACTCCTAAAAGAAGGTTGCCTCAGTTGAGGCTCGCTCTT
As to B2, the binding result with CalR3 [2] is listed as “no binding”.

B3: m0 (dsDNA)
DNA 1: AAGAGCGAGCCTCATGACAGGCAACCTTCTTTTAGGAGTCGACTTTCAATTGATAGCCTACTAGCACTTTGAGGAGATGA
DNA 2: TCATCTCCTCAAAGTGCTAGTAGGCTATCAATTGAAAGTCGACTCCTAAAAGAAGGTTGCCTGTCATGAGGCTCGCTCTT
As for B3, the binding result with CalR3 [3] is “binds”.

The values above are taken from PMC5712553, “A Novel TetR Family Transcriptional Regulator, CalR3, Negatively Controls Calcimycin Biosynthesis in Streptomyces chartreusis NRRL 3882”.
